Test results reported in paper PMC4739419, “Mutations in the nucleotide binding and hydrolysis domains of Helicobacter pylori MutS2 lead to altered biochemical activities and inactivation of its in vivo function” (BMC Microbiology, 2016).

Columns and labels:
HpMutS2 = molecular target: T1, HpMutS2 (Helicobacter pylori, UniProt O25338); format: biochemical; settings: for support of HpMutS2 ATPase activity by metal ion: metal ion 5 mM, ATP 100 μM, HpMutS2 45 nM, 37 °C, 30 min
T1 construct: (A) HpMutS2 (1-762): Mol. wt; (kDa): 87.8; His6 (C); made in house; host or cells: E. coli Rosetta (DE3) pLysS
Description: To delineate the characteristics of the ATPase activity of HpMutS2, we initially determined the metal ion requirement for ATP hydrolysis by HpMutS2. Purified HpMutS2 was incubated with excess of cold ATP (100 μM) with or without metal ions (5 mM each), and ATP hydrolysis monitored by thin layer chromatography using radiolabeled ATP [γ-^32P] as tracer.
Additional files 1: Figure S1. Multiple sequence alignment of MutS2 proteins from different H. pylori strains. Multiple sequence alignment of MutS2 proteins from different bacteria was carried out using Clustal Omega (http://www.ebi.ac.uk/Tools/msa/clustalo/). The protein sequences were obtained from NCBI protein database. The conserved nucleotide binding Walker-A motif and nucleotde hydrolysis Walker-B motifs are framed. The arrow indicates H. pylori MutS2 protein sequence. Figure S2. ATPase activity of HpMutS2 and variants. (A) Divalent metal ion requirement for ATPase activity of HpMutS2. Mentioned divalent metal ions (5 mM each) were incubated separately with cold ATP (100 μM) with (+) or without (−) HpMutS2 (45 nM). After incubation at 37 °C for 30 min the reactions were stopped by EDTA (50 mM) and the products were separated by TLC. ATP [γ-^32P] was used as tracer to monitor the product formation. (B) Time dependent hydrolysis of ATP by HpMutS2. A mixture of cold ATP (1 mM) and ATP [γ-^32P] was incubated in presence of HpMutS2 (45 nM) at 37 °C . The reaction aliquots were removed at indicated time points. The reactions were stopped by adding EDTA (50 mM) and products were separated by TLC. […] (C) Effect of HpSmr domain deletion on ATPase activity of HpMutS2. Increasing concentrations of proteins were incubated with a mixture of cold ATP (1 mM) and ATP [γ-^32P] at 37 °C for 30 min. The reactions were processed as described in (A). […] Figure S3. Limited proteolysis. Proteins (4 μM) were incubated with chymotrypsin (1.25 ng) for 30 min at 37 °C. The heat denaturation of proteins was performed by heating them at 95 °C for 10 min. […] Reactions were stopped by adding 1X protease inhibitor cocktail (Sigma), heat denatured and the products were separated on SDS-PAGE (10 %). Lane M: Molecular weight marker. Protein bands were detected by staining with Coomassie Brilliant Blue. […]. […] (A-E) Effect of nucleotides on DNA binding properties of HpMutS2. Electrophoretic mobility shift assays were performed with indicated DNA substrates (0.16 nM) without and with nucleotides (1 mM). After incubation for 30 min on ice, the reaction mixture was electrophoresed on polyacrylamide gel (8 %). Schematic representation of DNA substrates used are shown at the left side of autoradiographs. Figure S5. Chase experiments. A preformed ssDNA-HpMutS2 complex was chased with increasing concentrations of (A) ATP (0.25–5 mM) and (B) ssDNA (7.5–500 nM). (C) A preformed SC pUC19 DNA-HpMutS2 complex was chased with increasing concentrations of ATP (0.25–5 mM) . The reactions were performed at 37 °C and the reaction mixture was electrophoresed on PAGE (8 %) in case of (A and B) or an agarose gel (0.8 %) in case of (C). The amount of displaced DNA was estimated by assuming the DNA without protein as 100 %. Figure S6. Western blot. Equal numbers of exponentially growing H. pylori cells were lysed in Laemmli buffer (1X) by boiling at 95 °C for 5 min. The proteins were separated by SDS-PAGE (10 %). The HpMutS2 and mutants were detected by probing with polyclonal antibodies against HpMutS2. Table S1. Sequence of oligonucleotides used to prepare DNA substrates. Table S2. DNA substrates used in this study (* represents position of ^32P). (PDF 636 kb)

[1] = system: Nc1ncnc2c1ncn2[C@@H]1O[C@H](COP(=O)(O)OP(=O)(O)OP(=O)(O)O)[C@@H](O)[C@H]1O; experiment: purified protein, by the assay type; settings: pH 8.0; 37.0 °C
[2] = substrate: Nc1ncnc2c1ncn2[C@@H]1O[C@H](COP(=O)(O)OP(=O)(O)OP(=O)(O)O)[C@@H](O)[C@H]1O; experiment: ATPase assay by thin layer chromatography with [γ-32P]ATP as tracer and cold ATP varied, 50 mM Tris pH 8.0, 50 mM NaCl, 1 mM DTT, 5 mM MgCl2, 37 °C, no DNA, Michaelis-Menten non-linear regression.; format: biochemical
[3] = molecular target: the molecule itself; experiment: SEC; Superose-6 HR 10/30, buffer B (50 mM Tris pH 8.0, 100 mM NaCl), 0.3 ml/min, approximately 150 ug protein injected; mass from a plot of Ve/Vo versus log of molecular mass of standards

[Cd+2] [Cd ^2+]
support of HpMutS2 ATPase activity by metal ion (HpMutS2): allowed the ATPase activity to various extents

HpMutS2-E413A (Helicobacter pylori 26695; E413A)
Km [1]: 373.2 ± 188.6 µM | Vmax [1]: 0.19 µM/min | kcat [1]: 0.0703 ± 0.011 s⁻¹

[Cu+2] [Cu^2+]
support of HpMutS2 ATPase activity by metal ion (HpMutS2): allowed the ATPase activity to various extents

[Co+2] [Co^2+]
support of HpMutS2 ATPase activity by metal ion (HpMutS2): allowed the ATPase activity to various extents

[Zn+2] [Zn^2+]
support of HpMutS2 ATPase activity by metal ion (HpMutS2): allowed the ATPase activity to various extents

O=C(O)CN(CCN(CC(=O)O)CC(=O)O)CC(=O)O [EDTA]
effect on Mg2+ dependent ATPase activity (HpMutS2): inhibited

[Mn+2] [Mn^2+]
support of HpMutS2 ATPase activity by metal ion (HpMutS2): allowed the ATPase activity to various extents

HpMutS2-G338R (Helicobacter pylori 26695; G338R)
Km [1]: 939.3 ± 489.2 µM | Vmax [1]: 0.64 µM/min | kcat [1]: 0.237 ± 0.0555 s⁻¹

[Mg+2] [Mg^2+]
support of HpMutS2 ATPase activity by metal ion (HpMutS2): supported a strong ATPase activity

[Ni+2] [Ni^2+]
support of HpMutS2 ATPase activity by metal ion (HpMutS2): did not significantly support the ATPase activity

[Ca+2] [Ca^2+]
support of HpMutS2 ATPase activity by metal ion (HpMutS2): allowed the ATPase activity to various extents

B1: Helicobacter pylori MutS2 (enzyme, Helicobacter pylori strain 26695, UniProt O25338 1-762, looked up)
chain: MSDAPKRSLNPTLMMNNNNTPPKPLEESLDLKEFIALFKTFFAKERDTIALENDLKQTFTYLNEVDAIGLPTPKSVKESDLIIIKLTKLGTLHLDEIFEIVKRLHYIVVLQNAFKTFTHLKFHERLNAIVLPPFFNDLIALFDDEGKIKQGANATLDALNESLNRLKKESVKIIHHYARSKELAPYLVDTQSHLKHGYECLLLKSGFSGAIKGVVLERSANGYFYLLPESAQKIAQKIAQIGNEIDCCIVEMCQTLSHSLQKHLLFLKFLFKEFDFLDSLQARLNFAKAYNLEFVMPSFTQKKMILENFSHPILKEPKPLNLKFEKSMLAVTGVNAGGKTMLLKSLLSAAFLSKHLIPMKINAHHSIIPYFKEIHAIINDPQNSANNISTFAGRMKQFSALLSKENMLLGVDEIELGTDADEASSLYKTLLEKLLKQNNQIIITTHHKRLSVLMAENKEVELLAALYDEEKERPTYTFLKGVIGKSYAFETALRYGVPHFLIEKAKTFYGEDKEKLNVLIENSSALERELKQKNEHLENALKEQEYLKNAWLLEMEKQKEIFHNKKLELEKSYQQALNILKSEVASKDTSSMHKEIHKASEILSKHKTNQEIPQIITNFQANEKARYKNESVLIVQILDKGYYWIETELGMRLKAHGSLLKKIQKPPKNKFKPPKTTIPKPKEASLRLDLRGQRSEEALDLLDAFLNDALLGGFEEVLICHGKGSGILEKFVKEFLKNHPKVVSFSDAPINLGGSGVKIVKL
notes: MutS2 of Helicobacter pylori strain 26695, full length, cloned in pET28b; Tetramer by gel filtration; a small fraction elutes near the void volume as multimers; also called HpMutS2; wild-type HpMutS2
Km [2]: 412.1 ± 83.43 µM | Vmax [2]: 1.88 µM/min | kcat [2]: 0.696 ± 0.048 s⁻¹ | stoichiometry N [3]: 4
